Measured values reported in article PMC3438964 (The Journal of Biological Chemistry, 2012).

Assays:
hUXS1 = biological target: T1, hUXS1 (Homo sapiens, UniProt Q8NBZ7); assay: X-ray crystal structure, […] Å; format: binding; details: SeMet-labelled protein; 5 mM NAD+, 5 mM UDP; coenzyme site
T1 sequence (Q8NBZ7 85-402): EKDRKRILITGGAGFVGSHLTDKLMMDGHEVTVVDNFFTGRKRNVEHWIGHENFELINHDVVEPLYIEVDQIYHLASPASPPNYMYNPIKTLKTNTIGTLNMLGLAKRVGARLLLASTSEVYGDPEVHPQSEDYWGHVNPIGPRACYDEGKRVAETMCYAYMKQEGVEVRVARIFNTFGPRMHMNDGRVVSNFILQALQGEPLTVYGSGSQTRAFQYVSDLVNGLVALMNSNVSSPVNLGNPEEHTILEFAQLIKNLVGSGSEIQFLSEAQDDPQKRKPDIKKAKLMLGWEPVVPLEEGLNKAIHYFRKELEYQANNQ

purified protein = substrate: O=C(O)[C@H]1O[C@H](OP(=O)(O)OP(=O)(O)OC[C@H]2O[C@@H](n3ccc(=O)[nH]c3=O)[C@H](O)[C@@H]2O)[C@H](O)[C@@H](O)[C@@H]1O; assay: purified protein; details: 50 mM Tris/HCl pH 7.5, 25 °C

## NC(=O)c1ccc[n+]([C@@H]2O[C@H](COP(=O)(O)OP(=O)(O)OC[C@H]3O[C@@H](n4cnc5c(N)ncnc54)[C@H](O)[C@@H]3O)[C@@H](O)[C@H]2O)c1 [NAD^+]
hUXS1
  X-ray crystal structure, 1.26 Å: We solved the crystal structure of hUXS1 in complex with NAD^+ and UDP

B1: hUXS1 (Homo sapiens) (protein)
chain: EKDRKRILITGGAGFVGSHLTDKLMMDGHEVTVVDNFFTGRKRNVEHWIGHENFELINHDVVEPLYIEVDQIYHLASPASPPNYMYNPIKTLKTNTIGTLNMLGLAKRVGARLLLASTSEVYGDPEVHPQSEDYWGHVNPIGPRACYDEGKRVAETMCYAYMKQEGVEVRVARIFNTFGPRMHMNDGRVVSNFILQALQGEPLTVYGSGSQTRAFQYVSDLVNGLVALMNSNVSSPVNLGNPEEHTILEFAQLIKNLVGSGSEIQFLSEAQDDPQKRKPDIKKAKLMLGWEPVVPLEEGLNKAIHYFRKELEYQANNQ
Purified protein; 0.5 mM NAD+
  kcat: 0.2/oxidation^e

B2: hUXS1 (Homo sapiens; E204A) (protein)
chain: EKDRKRILITGGAGFVGSHLTDKLMMDGHEVTVVDNFFTGRKRNVEHWIGHENFELINHDVVEPLYIEVDQIYHLASPASPPNYMYNPIKTLKTNTIGTLNMLGLAKRVGARLLLASTSAVYGDPEVHPQSEDYWGHVNPIGPRACYDEGKRVAETMCYAYMKQEGVEVRVARIFNTFGPRMHMNDGRVVSNFILQALQGEPLTVYGSGSQTRAFQYVSDLVNGLVALMNSNVSSPVNLGNPEEHTILEFAQLIKNLVGSGSEIQFLSEAQDDPQKRKPDIKKAKLMLGWEPVVPLEEGLNKAIHYFRKELEYQANNQ
Purified protein; 10 mM NAD+
  kcat: 1.7 × 10^−3/reduction^e
